The results in this text go back to patent US6969760.

Assay [1] deals with IFN-γ receptor on 2C4 and mutant γ-1 cells (human HT1080-derived) (human) (UniProt P15260). Briefly: binding of 125I-labeled IFN-γ diluted to a lower specific activity, cells at 0° C.
Assay [2] shares this target. As to the kind of experiment: binding of 125I-labeled IFN-γ to 10^6 2C4 or γ-1 cells, 90 min at 0° C., non-specific binding subtracted.

The substance “125I-labeled human IFN-γ (from UniProt P01579 24-166) (ligand)” had a receptors per cell (saturation binding) (receptors per cell) in assay [1] of 10000. The receptors per cell (specific binding at the highest IFN-γ concentration) (receptors per cell) in assay [2] stood at 6000.
